In publication PMC7105897:

Legend:
[1] = target: N9 NA from the H7N9 epidemic isolate A/Hunan/02650/2016 (influenza A virus A/Hunan/02650/2016 (H7N9)); assay: crystal structure
[2] = target: N2 NA of the 1957 H2N2 pandemic isolate A/Japan/305/1957 (influenza A virus A/Japan/305/1957 (H2N2)); assay: crystal structure
[3] = target: N2 NA of the seasonal influenza virus strain A/Hong Kong/4801/2014 (H3N2) (influenza A virus A/Hong Kong/4801/2014 (H3N2))

N9 NA from the H7N9 epidemic isolate A/Hunan/02650/2016 (enzyme)
stoichiometry N [1]: 4

N2 NA of the 1957 H2N2 pandemic isolate A/Japan/305/1957 (enzyme)
stoichiometry N [2]: 4

antigen-binding fragment (Fab) of 1G01
IC50 of inhibition of NA activity of H3N2 A/Hong Kong/4801/2014 in ELLA (Fab) [3]: 7.62 nM
